Laboratory results published in the Human Domainome abundance scans (Beltran et al. 2025).
± gives the uncertainty stated by the source.

B1: Activity-dependent neuroprotector homeobox protein, residues 770 to 810; numbered along this chain, Q9H2P0 (parent)
chain: FLTKYFNKQPYPTRREIEKLAASLWLWKSDIASHFSNKRKK
B2: POU domain, class 6, transcription factor 2, residues 609 to 663; numbered along this chain, P78424 (parent)
chain: KRRTSFTPQALEILNAHFEKNTHPSGQEMTEIAEKLNYDREVVRVWFCNKRQALK

Variants of: B1
Assay: abundance fitness (aPCA) (normalised: wild type 0, dead -1); higher = more abundant; growth selection in yeast, the domain comes from the species named
Settings: Homo sapiens

Row | Variant | abundance fitness
1 | P10Y | -0.155 ± 0.12
2 | Q9S | -0.139 ± 0.062
3 | Q9E | -0.075 ± 0.11
4 | Q9V | -0.269 ± 0.15
5 | Q9I | -0.074 ± 0.1
6 | Q9C | -0.014 ± 0.063
7 | Q9W | -0.823 ± 0.38
8 | Q9T | -0.053 ± 0.063
9 | Q9A | -0.269 ± 0.07
10 | Q9L | -0.149 ± 0.065
11 | Q9Y | -0.409 ± 0.19
12 | Q9F | -0.233 ± 0.11
13 | Q9N | -0.007 ± 0.068
14 | Q9P | -0.698 ± 0.069
15 | Q9R | 0.039 ± 0.059
16 | Q9D | -0.169 ± 0.12
17 | Q9G | -0.133 ± 0.12
18 | R15Q | -0.162 ± 0.085
19 | R15L | -0.211 ± 0.058
20 | R15A | 0.116 ± 0.052
21 | R15K | 0.093 ± 0.072
22 | R15E | -0.02 ± 0.085
23 | R15M | -0.204 ± 0.069

Row | Variant | abundance fitness
24 | R15H | -0.384 ± 0.11
25 | R15T | -0.005 ± 0.066
26 | R15I | -0.252 ± 0.14
27 | R15W | -0.326 ± 0.12
28 | R15N | -0.173 ± 0.26
29 | R15G | -0.088 ± 0.061
30 | R15S | -0.018 ± 0.053
31 | R15D | -0.278 ± 0.15
32 | R15C | -0.182 ± 0.089
33 | R15V | -0.149 ± 0.13
34 | Y11R | -0.035 ± 0.052
35 | Y11P | -0.124 ± 0.061
36 | Y11H | 0.076 ± 0.078
37 | Y11E | 0.02 ± 0.071
38 | Y11M | 0.058 ± 0.085
39 | Y11S | 0.275 ± 0.047
40 | Y11A | 0.137 ± 0.064
41 | Y11W | 0.003 ± 0.095
42 | Y11V | 0.031 ± 0.053
43 | Y11G | 0.293 ± 0.051
44 | Y11I | 0.05 ± 0.087
45 | Y11C | 0.086 ± 0.3
46 | Y11F | -0.182 ± 0.13

Row | Variant | abundance fitness
47 | Y11T | 0.135 ± 0.061
48 | Y11Q | 0.181 ± 0.071
49 | Y11L | -0.006 ± 0.052
50 | Y11N | 0.124 ± 0.059
51 | Y11D | -0.086 ± 0.16
52 | F1L | -1.24 ± 0.22
53 | F1K | -0.36 ± 0.33
54 | F1P | -0.375 ± 0.29
55 | F1C | -0.854 ± 0.15
56 | F1R | -1.12 ± 0.33
57 | F1N | -0.142 ± 0.32
58 | F1S | -0.09 ± 0.25
59 | F1D | -0.805 ± 0.27
60 | F1T | -0.158 ± 0.2
61 | F1M | -0.176 ± 0.15
62 | F1G | -0.574 ± 0.2
63 | Y5P | -0.526 ± 0.23
64 | Y5G | -0.812 ± 0.49
65 | Y5K | -0.183 ± 0.28
66 | Y5I | -0.094 ± 0.098
67 | Y5N | -0.564 ± 0.25
68 | Y5L | -0.322 ± 0.095

Variants of: B2
Assay: as above
Settings: Homo sapiens

Row | Variant | abundance fitness
69 | T30R | -0.119 ± 0.11
70 | T30A | -0.046 ± 0.28
71 | T30P | -0.692 ± 0.22
72 | T30G | -0.128 ± 0.12
73 | T4I | -0.364 ± 0.22
74 | T4S | -0.001 ± 0.093
75 | T4Q | -0.203 ± 0.13
76 | E31I | -0.534 ± 0.24
77 | E31A | -0.114 ± 0.19
78 | E31N | -0.258 ± 0.3
79 | Q52S | -0.175 ± 0.08
80 | K35E | -0.154 ± 0.18
81 | P24M | -0.327 ± 0.074
82 | P24N | -0.96 ± 0.24
83 | P24L | -0.394 ± 0.064
84 | I13A | -0.01 ± 0.12
85 | I13L | -0.017 ± 0.13
86 | I13P | -0.98 ± 0.31
87 | R51L | 0.011 ± 0.091
88 | R51D | -0.457 ± 0.21
89 | R51V | -0.165 ± 0.094
90 | R51S | -0.174 ± 0.098
91 | F18W | -0.086 ± 0.071
92 | F18E | -0.892 ± 0.11
93 | R40G | 0.069 ± 0.071

Row | Variant | abundance fitness
94 | F6S | -0.415 ± 0.086
95 | T22I | -0.103 ± 0.11
96 | N37L | -0.241 ± 0.093
97 | N37A | -0.035 ± 0.089
98 | L11F | -0.498 ± 0.24
99 | K50C | -0.662 ± 0.25
100 | K50G | -0.491 ± 0.074
101 | V45G | 0.03 ± 0.088
102 | V45H | -0.141 ± 0.17
103 | H23Y | -0.257 ± 0.15
104 | H23E | 0.072 ± 0.11
105 | R3I | 0.136 ± 0.12
106 | R3F | 0.053 ± 0.11
107 | V42D | -0.012 ± 0.1
108 | V42Y | -0.099 ± 0.19
109 | G26F | -0.173 ± 0.21
110 | G26T | 0.03 ± 0.17
111 | G26R | -0.032 ± 0.08
112 | G26E | 0.119 ± 0.13
113 | S5Q | 0.221 ± 0.14
114 | Y38I | 0.027 ± 0.13
115 | E28D | -0.047 ± 0.23
116 | E28M | -0.595 ± 0.3
117 | D39P | 0.037 ± 0.058
118 | D39V | -0.418 ± 0.061

Row | Variant | abundance fitness
119 | D39Y | -0.425 ± 0.075
120 | D39C | -0.093 ± 0.085
121 | R2T | 0.041 ± 0.089
122 | R2Q | 0.026 ± 0.17
123 | N21T | -0.173 ± 0.1
124 | N21P | -0.987 ± 0.33
125 | N21S | -0.17 ± 0.08
126 | P8C | -0.023 ± 0.14
127 | I32M | -0.246 ± 0.28
128 | I32L | -0.154 ± 0.17
129 | A10N | -0.106 ± 0.28
130 | S25L | -0.213 ± 0.098
131 | S25T | 0.003 ± 0.17
132 | S25F | -0.515 ± 0.18
133 | L54F | -0.199 ± 0.12
134 | L54P | 0.042 ± 0.17
135 | L54K | -0.159 ± 0.16
136 | L54R | -0.103 ± 0.12
137 | L54T | -0.217 ± 0.22
138 | L54E | -0.133 ± 0.13
139 | L54V | -0.101 ± 0.12
140 | L54D | -0.182 ± 0.31
141 | V43H | -1.04 ± 0.41
142 | V43W | -0.979 ± 0.14
143 | A16V | -0.078 ± 0.06

Row | Variant | abundance fitness
144 | A16N | 0.02 ± 0.12
145 | A16F | -0.091 ± 0.1
146 | R44A | -0.017 ± 0.082
147 | R44C | -0.076 ± 0.13
148 | R44S | -0.094 ± 0.074
149 | Q9K | -0.037 ± 0.2
150 | Q9S | -0.207 ± 0.096
151 | F47M | -0.686 ± 0.091
152 | F47S | -0.81 ± 0.071
153 | K20W | -0.303 ± 0.084
154 | K20Q | -0.17 ± 0.13
155 | K20H | -0.239 ± 0.16
156 | A53L | -0.086 ± 0.098
157 | W46I | -0.828 ± 0.41
158 | W46F | -0.405 ± 0.29
159 | W46C | -0.997 ± 0.28
160 | W46K | -0.983 ± 0.43
161 | K1R | -0.269 ± 0.12
162 | N15A | -0.247 ± 0.11
163 | L14N | -1.06 ± 0.34
164 | L14I | -0.898 ± 0.23
165 | H17F | -0.056 ± 0.098
166 | H17R | -0.101 ± 0.057
167 | H17Y | -0.065 ± 0.092
